Experimental data published in the DeepSol protein solubility set.

assay: soluble on expression in E. coli; label from the status in PepcDB or PDB records

Row | Sequence | soluble on expression in E. coli
1 | MSLKKIIITGALGQIGTELVIKCRERYGTENVLATDIRKPEPHSPVKNGPFEILDVTDRNRLFETVRYFNADTLMHMAALLSATAEKKPLVAWDLNMGGLINTLEAARRYQLKYFTPSSIGAFGISTPKVNTPQLTIQQPTTMYGINKVTGELLCQYYYVKFGVDTRSVRFPGLISHVKEPGGGITDYAVDMYFKAVRKGHYTSYINRYTYMDMMYMEDAIDAIIKLMEEDSVKLKTRNGYNLSAMSIEPEMLKQAIQVYYPDFTLDYDIDLERQDIALSWPDSIDTSCAQEEWGFDPKYDLPTMTKVMLEAIEKKQKEEGHHHHHH | soluble
2 | MSLKKILIIVPDGGMLFESAGIADILMQANRLHPEGAREICYQVKLATTQPHQVIHGQSGLNLLADHRLHEIDPREPLDTIMITGRGQNPQEGMAVVDWLRLAAPHARRIVSICGGAMLLAQTGLLDGRRATTHWKLLETMQAEFPQIRVEGGPLYIQDEHIWTSGGVSSGFDLTLALVEEDYGFSLARDIAQDFVMYLRRPGGQLQFSRYNLQQTATQGPINDLLAWLLENLTADLSVDKLAEKVAMSPRNFTRVFTRETGASPARYVAEARLAAARQRLEQTHETLDRIAEQTGFGSSINLRRLFEKQLNLTPGEYRQRFHCRKMAEGHHHHHH | soluble
3 | MSLKKINFGIVGLGRLGRAHAENLAFKIPNANLLAVCSIDKSQVDEVQKAWNIPYGYTDFDEMLKNKELDAIFIASPSGFHCEQIEKALDAGFHVFSEKPLGLYLDDAVRAMKAVNSHPNQIFMLGFMRRYDKSYAYAKKKIEEGAIGKPVLVRCYGLDPAKALPSFLKFAKDSYSGGLFLDMAIHDIDLARWYLDSEADELWAIGGAYGHKEFDEINDAETGAAMVKFKNGTMALLVAGRNCAHGYHIETEIIGTEGTLRIGTTPDKNLVTVFDSRGVNKECAGGFLERFEDAYLAEVKEFVDCVLENRKPAVTVEDGVLSTIVGYACKESFETGELVKVNYEGYDKLIKEGHHHHHH | soluble
4 | MSLKKISFIINGQVEIFPESDDLVQSINFGDNSVYLPILNNSHVKNIIDYNENNKLRLHNIVNFLYTVGQRWKNEEYSRRRTYIRDLKKYMGYSEAMAKLEANWISMILCSKGGLYDVVENELGSRHIMDEWLPQDESYIKAFPKGKSIHLLAGNVPLSGIMSILRAILTKNQCIIKTSSTDPFTANALALSFIDVDPNHPITRSLSVVYWPHQGDTSLAKEIMQHMDVIVAWGGEDAINWAVEHAPPYADVIKFGSKKSFCIIDNPVDLTSAATGAAHDICFYDQRACFSAQNIYYMGNQYEEFKLALIEKLNLYAHILPNAKKDFDEKAAYSLVQKESLFAGLKVEVDVHQRWMIIESNAGVEFNQPLGRCVYLHHVDNIEQVLPYVQKNKTQTISIFPWESAFKYRDALALRGAERIVEAGMNNIFRVGGSHDGMRPLQRLVTYISHERPSHYTAKDVAVEIEQTREGHHHHHH | soluble
5 | MSLKKTQQKEIENVTNITGVRQIELWRRDDLQHPRLDEVAEEVPVALVYNGISHVVMMASPKDLEYFALGFSLSEGIIESPRDIFGMDVVPSCNGLEVQIELSSRRFMGLKERRRALAGRTGCGVCGVEQLNDIGKPVQPLPFTQTFDLNKLDDALRHLNDFQPVGQLTGCTHAAAWMLPSGELVGGHEDVGRHVALDKLLGRRSQEGESWQQGAVLVSSRASYEMVQKSAMCGVEILFAVSAATTLAVEVAERCNLTLVGFCKPGRATVYTHPQRLSNEGHHHHHH | soluble
6 | MSLKKWFTILTFVLTAFLVTRTAIAETSPYVLMQQAADKLFSDIQANQSKIKQDPNYLRTIVRNDLLPYVNLEYAGSKVLGSYYKSTSAEQREKFFKTFGELIEQKYAQALTNYSNQKIQIESEKELGDNNFINIRVNIIQANGVAPILLYFKWRKGNKSGEWKVYDMVGAGVSMLEDTIKNWVGILNKQGIDTLITKMQQSASQPIIFNQEGGSHHHHHH | soluble
7 | MSLKLTPEAAGTFAIAPTPFHDDGKIDDVSIDRLTDFYAEVGCEGVTVLGILGEAPKLDAAEAEAVATRFIKRAKSMQVIVGVSAPGFAAMRRLARLSMDAGAAGVMIAPPPSLRTDEQITTYFRQATEAIGDDVPWVLQDYPLTLSVVMTPKVIRQIVMDSASCVMLKHEDWPGLEKITTLRGFQKDGSLRPLSILCGNGGLFLDFEMERGADGAMTGYCFPDMLVDVVKLSKAGQRDLAHNLFDAHLPLIRYEHQQGVGLSVRKYVLKKRGLLSSSAQRKPGASLTDTAREEVDYLLSRLARVDKRADFEPRTKAAEEGHHHHHH | soluble
8 | MSLKLWKNATFYQMTAEGDQVSAVLTENGQICAVGEAMDLEKQYVANITETIDLEGKVVFPGFVDAHIHLLWYGQALERLNLNQTTTKKEALALIAERTKQIASDEWLFVEGYDENKWSDEQTLISLADLDEVSQTNPILVRRIDYHSVSINSALQEKIADFSETGFDGGGEIVRDKTGEFIGVLRDNATTMAIDSFPAATPSELSAWLEIAITDLWSKGITGAHSEDLHYFTGFASTLAAFRNTIGSNKMPFRAHLLVHHAELAAFSASNESFVSGDAFLELGAMKIFYDGTVGSRTALMSAGYADNPSEKGLQIHSDQAFEDLVKAARKAGLPVAIHILGDQAFANVIRTLRANPPKEGQYDRLIHTPWLTEALIEEATGLPVLFDIQPQFMASDLPWALEVLGDNHPPLAFAWKTLLQAGFPLAGGSDAPIEVPNPFWGIHAAVTRTANADLDGVGYWPEQALTVFEAIQLYTKGAAFASYKTTTRGQIAPGFVADFTILAEDPFQMKQAELRQVSVVMTVVNEQIVYQKKEGHHHHHH | soluble
9 | MSLKNIRHIYYVSENTGLLAKDSGKSLLCQFPGVEFQEELLPFIRTKDDAQRTINAIREKCGEEKPIIFSTIFDPEINKILQHEDVILLNICEPFLTQLEGMLGKNALRASGHSRNVDQQIMSNRVDAIHYTISHDDGTAIMDYEEADLIIVGVSRSGKTPISVFLATQMGIKTANYPLVEQDLTFCQLPEDIIKNKHKVVGLSISPDVLHTFREQRYKGSHYAQMSTCKRETLQSKRIFEKYDLPVVFSDARSIEETATQVAQELSKQWNPIFEGHHHHHH | soluble
10 | MSLKNLHPIMLAGTGSDVGKSVIAAALCRIFKQDGYRPAPFKAQNMALNSYATPEGLEIGRAQAVQAEAAGVPCHTDMNPLLLKPSSDHTSQVVLNGRPIGNRNAFEYFRKEGREELRQEVNAAFDRLAARYNPIVMEGAGSISEINLRDTDLVNMPMACYADADVILVADIDRGGVFASVYGSVMLQTPEDKKRIKGVIINKFRGDIRLFESGVKMMEDLCGIPVLGIIPYYRNIHIEEEDSVGLDYKRMQAVEGKINIAVVLLRHLSNFTDFNRLERDERVHLYYTNNTEDLAKADIILLPGSKSTLDDLYELRRNGVAQAVLRAHREGVTVMGICGGYQLMGLEIHDPEGVEGEIRQLPGLGLLPVITTMQGEKVTRQVNFHFLENAETCQGYEIHMGETRPVPGEAVVPLNKLEDGGEDGCFVNQKCMGSYIHGILDNQAFIDYLLEPYAEKLEEGHHHHHH | not soluble
11 | MSLKNNSEVFNVLHFSDIHIQLRYNVGAEANCTNLPCGAPDSYNKQLLPSSYNFSSYYQHFSPNVAKMEFSFYPDAHYDENSQYIKGDYYDFPLYRGWNFKNAPATSFGGYLTDSPAVLMNSSLISMAKMHKEKNFEFAIFTGDVVDHLLLSCTPEYTKEEEVKSFKAMKFFFNNLTVLPALGNHETGEYGQLSPIAYDFNGSYSWNQDEMVDLWINNEWFPAKDRYDLKSHYAGFSYVTNRGLKVIGLNSNAYYQKNLWSYIDLSTNPDLFGQWEFLVNELIESEEKGQRVWIMAHIPTTDYDTLPLQSRIFGKIVERFSPYTIANIFFAHTHMDQTHILYSTNSSKEAEDIINMSWVMQSVTPLANYNPSWRYYEVENESFNIINSFNYMTKLNDTEGHHHHHH | soluble
12 | MSLKNVTEKNREIYKQLNDRQEEISRLQRDLIQTKEQVSINSNKILVYESEMEQCKQRYQDLSQQQKDAQKKDIEKLTNEISDLKGKLSSAENANADLENKFNRLKKQAHEKLDASKKQQAALTNELNELKAIKDKLEQDLHFENAKVIDLDTKLKAHELQSEDVSRDHEKDTYRTLMEEIESLKKELQIFKTANSSSDAFEKLKVNMEKEKDRIIDERTKEFEKKLQETLNKSTSSEAEYSKDIETLKKEWLKEYEDETLRRIKEAEENLKKRIRLPSEERIQKIISKRKEELEEEFRKKLKENAGSLTFLDNKGSGEDAEEELWNSPSKGNSERPSAVAGFINQKNLKPQEQLKNVKNDVSFNDSQSMVTNKENNIVDSSAAGNKAIPTFSFGKPFFSSNTSSLQSFQNPFTASQSNINTNAPLRTLNIQPEVAVKAAINFSNVTDLTNNSTDGAKITEIGSTSKRPIESGTSSDPDTKKVKESPANDQASNEEGHHHHHH | soluble
13 | MSLKNYQSSDPFKEARVSSGCAHMNDQDDPVTMILRLKDVRKTAHNWKTFQSGAAPGRIVIPSEVNIRDTRQIPFEVDPPLHGAFRSLLDPWFKRPLKAQYQETLAQQVNALVDDVLKADSIDVVEDFALCLQSRALTLLLNTDADEADTWIGWGTHVFRSEDDPLDGDKAAILYDYIDEKIKASSPNPEGDLYSVLLAAEVEGKKLTHEEIKGIMILTFAGGRDTVINAVTNTVSYFAQHPESLARLRNEPEIIGRAIEELIRYFTPLTQMGRVVTQDTQVCEHAIKADSRVSLCWASANRDESVFESPNDVILDRKLNPHVSFGFSHHNCLGATHARQIMRVLIETLMAKVGSIDIIDFEENIEYLGEFERKVGFHKLHVNIHPREGHHHHHH | soluble
14 | MSLKPINVVIIENENISRVGAAAILSETGKIQVCGLAKTGKEGIETVDQQKPDIVVINIDLPDINGTDVISLIKCKHTSIKIVVMTANSSRDTINAAISNGADCYYCKNNAREEVGERFIEAVMAAYNNESWIDPTINRILIDNLRSNDTADRDSLDLLSDFSNKEITVLKLAAGGMKNNEIANVMYVSEGTVRSYLHNSFIKLGVKDRLNAIREAIRLGILSFADEGHHHHHH | soluble
15 | MSLKPLFGEKDESNISPITKQLTEEEASKVIAEVNGEQILYKDFYFIYSQQAAYYGLTTEDEDSLSDDTKEILNTIKKELLTQLIQQKLAKQKAKEAGYEVTKERLDEASEAIEEMIRNMAEQMKLSSPSEAESRDFLKEARDFINSELKAMRITMDEYIRDTAEYMIVTDFMEDLTKDIVVTDEEIKKYYDEQLKIQQENPEEAAYAEVQLIQPASSRVKHILIALPEEEQQEYQNLKSEGKDEEAEAYLKEKLEAIKPKAEEVLNKAKNGEDFEALIKEYGEDPGMESEQYKDGYTVTKNSGFIKSFEDASLALGVGEISDLVEGPYGYHIIKVYEKTEAKPYTQEEKKSEIESLLKSQKKTNFMNEKMKEWESASTIVRHDDEGHHHHHH | soluble
16 | MSLKPNIQFEITGASRILPASGPITNLEILKNFPRTADKSQGFLEKFAEKIGEEFGFHTRYWCHKPWESLDNSRELSSESLAMQAVDKLITHSMSKDVDAFLLGSTTNKRFTGSQAAAVLGNLKLNAPAYDLKTGCSTSLSTLHFAYALMALGYQKILVCCSETLSKVIDPENEKTWIGLADGAASLLLEKSKEGSFTIEKSFFSTDGQYVNAFTTQGVFPPTHEQIDSVGYHLVGDETLMKELAYSRYMQMLDHLLPTEKEKNEITWVIPHQVNRKLIDQVLHENNLNNKIIIWDADTIGNIGGASVLYTLARAVEEKLFDRSGKILLMSVGGGLSYAGQVLNYQEGHHHHHH | soluble
17 | MSLKPQKILIATDGSEASEKAADFGIETLRFEGAKVYAVYVIDTGSYGSVPVDEKKFKKIERLEEIGHKATSYVEKKATAAGMKVESIVLKGNPAEEIVDFAEEQRVDMIVVGSLGKSGIKRFMLGSVSEKVVRRAKIPVLVVREQKEIKPQKQILIAADCSKATEKAVDFGIEIAKLNGAKVYAVHVIDPIFNDLMEEAWAENAYEQFKKIGREAVSYVEEKANAAGVKVESAVLEGNPAEEIVDFAEEQKVDMIVVGSLGKSGYEQFAIGSVSSKVLRNAKVPVLIVHDIYEFVELFRRCQKSEEVLTPVAGEKEGHHHHHH | soluble
